# Measured values published in patent US20040248211A1 (published 2004).
# How the values were obtained:
# [1] = molecular target: CD18-independent counter-receptor for ICAM-R on Jurkat cells; test: Jurkat cell adhesion to plate-bound shICAM-R, peptide 1-2 mg/ml
# [2] = molecular target: T1, LFA-1 (CD11a/CD18) on cells (human, UniProt P20701 26-1170; P05107 23-769); test: JY cell adhesion to plate-bound chimera
# T1 construct: whole, on cells; On SKW3, JY, HL-60 cells, neutrophils and transfected CHO and COS cells; also called CD18/CD11a
# [3] = molecular target: T2, VLA-4 (alpha4/beta1) on cells (UniProt P13612 34-1032; P05556 21-798, limits assumed); test: adhesion of transfected COS cells to immobilized chimera (20 ug/ml coat)
# T2 construct: whole, on cells; On Jurkat cells, T cells and COS cells transfected with alpha4 and beta1 cDNAs; also called α4/β1; α4β1
# T1 sequence (P20701 26-1170, chain 1 of 2): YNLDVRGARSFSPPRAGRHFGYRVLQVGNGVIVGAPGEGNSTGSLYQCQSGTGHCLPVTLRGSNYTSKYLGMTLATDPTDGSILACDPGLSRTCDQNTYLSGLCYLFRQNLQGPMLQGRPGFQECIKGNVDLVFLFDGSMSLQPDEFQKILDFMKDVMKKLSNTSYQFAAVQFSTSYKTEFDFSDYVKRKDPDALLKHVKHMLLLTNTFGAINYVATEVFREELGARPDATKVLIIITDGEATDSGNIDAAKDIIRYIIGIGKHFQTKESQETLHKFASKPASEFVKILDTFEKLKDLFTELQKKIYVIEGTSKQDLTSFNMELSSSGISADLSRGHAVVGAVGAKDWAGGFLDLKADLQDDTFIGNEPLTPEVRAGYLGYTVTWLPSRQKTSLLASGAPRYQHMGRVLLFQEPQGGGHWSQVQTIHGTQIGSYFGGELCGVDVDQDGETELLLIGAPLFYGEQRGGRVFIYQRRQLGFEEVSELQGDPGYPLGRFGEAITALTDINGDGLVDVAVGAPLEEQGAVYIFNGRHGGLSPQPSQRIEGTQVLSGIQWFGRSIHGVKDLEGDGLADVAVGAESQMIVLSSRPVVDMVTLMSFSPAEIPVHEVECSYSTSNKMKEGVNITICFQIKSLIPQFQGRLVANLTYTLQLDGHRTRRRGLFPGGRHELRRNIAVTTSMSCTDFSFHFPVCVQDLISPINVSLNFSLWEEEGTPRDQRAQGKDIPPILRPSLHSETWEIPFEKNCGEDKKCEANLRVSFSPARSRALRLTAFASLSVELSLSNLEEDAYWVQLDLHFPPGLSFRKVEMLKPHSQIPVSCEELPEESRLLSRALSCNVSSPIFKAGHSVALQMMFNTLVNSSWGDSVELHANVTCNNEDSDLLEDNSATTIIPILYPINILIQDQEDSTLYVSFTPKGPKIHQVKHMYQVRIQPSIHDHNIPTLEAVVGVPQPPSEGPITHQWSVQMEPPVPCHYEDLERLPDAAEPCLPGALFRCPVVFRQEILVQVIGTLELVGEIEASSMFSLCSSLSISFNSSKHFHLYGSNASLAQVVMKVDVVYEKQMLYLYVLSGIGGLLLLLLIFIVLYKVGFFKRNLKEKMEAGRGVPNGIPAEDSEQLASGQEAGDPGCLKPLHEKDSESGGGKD
# T1 sequence (P05107 23-769, chain 2 of 2): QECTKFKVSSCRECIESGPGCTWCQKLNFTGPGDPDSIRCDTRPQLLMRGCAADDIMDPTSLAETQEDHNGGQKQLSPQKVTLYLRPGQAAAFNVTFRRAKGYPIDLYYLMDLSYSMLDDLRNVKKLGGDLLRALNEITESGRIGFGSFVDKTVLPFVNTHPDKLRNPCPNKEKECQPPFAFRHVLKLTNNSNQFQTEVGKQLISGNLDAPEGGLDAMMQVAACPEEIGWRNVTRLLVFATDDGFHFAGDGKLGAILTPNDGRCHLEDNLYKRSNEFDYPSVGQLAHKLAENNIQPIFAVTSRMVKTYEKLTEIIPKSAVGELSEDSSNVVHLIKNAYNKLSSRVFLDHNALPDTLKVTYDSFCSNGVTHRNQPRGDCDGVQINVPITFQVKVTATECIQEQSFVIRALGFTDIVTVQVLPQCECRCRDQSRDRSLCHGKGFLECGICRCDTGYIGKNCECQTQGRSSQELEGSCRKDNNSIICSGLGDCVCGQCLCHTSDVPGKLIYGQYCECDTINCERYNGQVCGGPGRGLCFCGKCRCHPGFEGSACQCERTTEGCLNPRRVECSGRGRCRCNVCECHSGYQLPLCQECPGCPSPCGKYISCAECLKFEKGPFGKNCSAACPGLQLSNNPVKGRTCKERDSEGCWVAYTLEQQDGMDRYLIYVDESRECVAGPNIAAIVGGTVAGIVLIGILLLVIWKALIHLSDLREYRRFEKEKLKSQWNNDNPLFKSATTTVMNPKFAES
Binder,% Inhibition of cell binding to shICAM-R [1] [%],further results
"NGSQI (also called ICAM-R 72-76) [ICAM-R domain 1 peptide NGSQI, residues 72-76]",17,
"ICAM-R/IgG chimera with domain 3 deleted (Fc fusion, also called domain 3 deletion chimera; not shown: human IgG1 hinge, CH2 and CH3) QEFLLRVEPQNPVLSAGGSLFVNCSTDCPSSEKIALETSLSKELVASGMGWAAFNLSNVTGNSRILCSVYCNGSQITGSSNITVYGLPERVELAPLPPWQPVGQNFTLRCQVEGGSPRTSLTVVLLRWEEELSRQPAVEEPAEVTATVLASRDDHGAPFSCRTELDMQPQGLGLFVNTSAPRQLRTFLGPIVNLSEPTAHEGSTVTVSCMAGARVQVTLDGVPAAAPGQTAQLQLNATESDDGRSFFCSATLEVDGEFLHRNSSVQLRVLYGPKIDRATCPQHLKWKDKTRHVLQCQARGNPYPELRCLKEGSSREVPVGIPFFVNVTHNGTYQCQASSSRGKYTLVVVMDIEAFSSH",,binding result [2]: binds
"GDQRL (also called ICAM-1 228-232) [ICAM-1 domain 3 peptide GDQRL, residues 228-232]",22,
"ICAM-1/IgG chimera (Fc fusion, UniProt P05362 28-480, looked up, not shown: a dimerising Fc or GST, also called ICAM-1/Ig fusion protein) QTSVSPSKVILPRGGSVLVTCSTSCDQPKLLGIETPLPKKELLLPGNNRKVYELSNVQEDSQPMCYSNCPDGQSTAKTFLTVYWTPERVELAPLPSWQPVGKNLTLRCQVEGGAPRANLTVVLLRGEKELKREPAVGEPAEVTTTVLVRRDHHGANFSCRTELDLRPQGLELFENTSAPYQLQTFVLPATPPQLVSPRVLEVDTQGTVVCSLDGLFPVSEAQVHLALGDQRLNPTVTYGNDSFSAKASVSVTAEDEGTQRLTCAVILGNQSQETLQTVTIYSFPAPNVILTKPEVSEGTEVTVKCEAHPRAKVTLNGVPAQPLGPRAQLLLKATPEDNGRSFSCSATLEVAGQLIHKNQTRELRVLYGPRLDERDCPGNWTWPENSQQTPMCQAWGNPLPELKCLKDGTFPLPIGESVTVTRDLEGTYLCRARSTQGEVTRKVTVNVLSPRYE",,binding result [3]: no binding
"EKIALET (also called ICAM-R 32-38) [ICAM-R domain 1 peptide, residues 32-38]",10,
"GDQML (also called ICAM-R 230-234) [ICAM-R domain 3 peptide GDQML, residues 230-234]",36,
"DGQST (also called ICAM-1 70-74) [ICAM-1 domain 1 peptide DGQST, residues 70-74]",9,
"GERREA (also called ICAM-R 271-276) [ICAM-R domain 3 peptide, residues 271-276]",11,
